{"source": "patent US20250152742A1", "about": "“COMPOSITIONS AND METHODS FOR NEUROLOGICAL DISEASES” (Trames Bio, Inc., priority 2022, published 2025)", "molecules": {"B1": {"name": "CODA806: engineered receptor: Y115D, L131Q in SEQ ID NO: 33 (Chemogenic receptor-11) (protein)", "chain": "MRCSPGGVWLALAASLLHVSLQGEFQRKLYKELVKNYNPLERPVANDSQPLTVYFSLSLLQIMDVDEKNQVLTTNIWLQMSWTDHYLQWNVSEYPGVKTVRFPDGQIWKPDILLDNSADERFDATFHTNVQVNSSGHCQYLPPGIFKSSCPMDLKNFPMDVQTCKLKFGSWSYGGWSLDLQMQEADISGYIPNGEWDLVGIPGKRSERFYECCKEPYPDVTFTVTMRRRMGYYLIQMYIPSLLIVILSWISFWINMDAAPARVGLGITTVLTMTTQSSGSRASLPKVSYVKAIDIWMAVCLLFVFSALLEYAAVNFVSRQHKELLRFRRKRRHHKSPMLNLFQEDEAGEGRFNFSAYGMGPACLQAKDGISVKGANNSNTTNPPPAPSKSPEEMRKLFIQRAKKIDKISRIGFPMAFLIFNMFYWIIYKIVRREDVHNQ", "modifications": "synthetic sequence of chimeric LGIC"}}, "test_system": "engineered chimeric receptor SEQ ID NO: 33 and its mutants (human α7-nAChR ligand binding domain / human GlyRα1 ion pore domain) in Lenti-X 293T cells", "assay": "YFP fluorescence quenching anion reporter plate reader assay (percent quench, EC50)", "type": "cell-based", "settings": "for YFP fluorescence quenching using CNL001 (percent quench): receptor named in row", "method_in_brief": "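Lenti-X 293T cells co-expressing an anion-quenchable YFP were transiently transfected with receptor DNA, then ligand was added in NaI-substituted buffer (pH 7.2) after 30 min at 37 °C. Fluorescence was read about 2 min; percent quench = mean of last 10 s over 15 s pre-ligand baseline.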"}
{"molecule": "B1", "values": [{"measurement": "YFP fluorescence quenching using CNL001 (percent quench)", "setting": "1 nM CNL001, first column so headed", "value": 6.587, "unit": "%"}, {"measurement": "YFP fluorescence quenching using CNL001 (percent quench)", "setting": "1 nM CNL001, second column so headed", "value": "−5.179", "unit": "%"}, {"measurement": "YFP fluorescence quenching using TC-5619/Bradanicline (percent quench)", "setting": "1 nM brd (TC-5619/Bradanicline)", "value": 0.92, "unit": "%"}, {"measurement": "YFP fluorescence quenching using TC-5619/Bradanicline (percent quench)", "setting": "3 nM brd (TC-5619/Bradanicline)", "value": "−4.65", "unit": "%"}, {"measurement": "YFP fluorescence quenching using CNL001 (percent quench)", "setting": "10 nM CNL001, first column so headed", "value": "−2.366", "unit": "%"}, {"measurement": "YFP fluorescence quenching using CNL001 (percent quench)", "setting": "10 nM CNL001, second column so headed", "value": "−1.272", "unit": "%"}, {"measurement": "YFP fluorescence quenching using TC-5619/Bradanicline (percent quench)", "setting": "10 nM brd (TC-5619/Bradanicline)", "value": 0.38, "unit": "%"}, {"measurement": "YFP fluorescence quenching using TC-5619/Bradanicline (percent quench)", "setting": "30 nM brd (TC-5619/Bradanicline)", "value": "−8.96", "unit": "%"}, {"measurement": "YFP fluorescence quenching using CNL001 (percent quench)", "setting": "50 nM CNL001, first column so headed", "value": 2.763, "unit": "%"}, {"measurement": "YFP fluorescence quenching using CNL001 (percent quench)", "setting": "50 nM CNL001, second column so headed", "value": 1.995, "unit": "%"}, {"measurement": "YFP fluorescence quenching using ABT-126 (percent quench)", "setting": "50 nM abt (ABT-126)", "value": "−1.81", "unit": "%"}, {"measurement": "YFP fluorescence quenching using CNL001 (percent quench)", "setting": "100 nM CNL001, first column so headed", "value": 3.091, "unit": "%"}, {"measurement": "YFP fluorescence quenching using CNL001 (percent quench)", "setting": "100 nM CNL001, second column so headed", "value": 1.45, "unit": "%"}, {"measurement": "YFP fluorescence quenching (percent quench)", "setting": "100 nM CNL002", "value": "−10.03", "unit": "%"}, {"measurement": "YFP fluorescence quenching using ABT-126 (percent quench)", "setting": "100 nM abt (ABT-126)", "value": "−2.61", "unit": "%"}, {"measurement": "YFP fluorescence quenching using AZD-0328 (percent quench)", "setting": "100 nM azd0328", "value": 12.15, "unit": "%"}, {"measurement": "YFP fluorescence quenching using TC-5619/Bradanicline (percent quench)", "setting": "100 nM brd (TC-5619/Bradanicline)", "value": 12.18, "unit": "%"}, {"measurement": "YFP fluorescence quenching using ABT-126 (percent quench)", "setting": "300 nM abt (ABT-126)", "value": "−3.78", "unit": "%"}, {"measurement": "YFP fluorescence quenching using AZD-0328 (percent quench)", "setting": "300 nM azd0328", "value": 30.92, "unit": "%"}, {"measurement": "YFP fluorescence quenching using TC-5619/Bradanicline (percent quench)", "setting": "300 nM brd (TC-5619/Bradanicline)", "value": "−0.3", "unit": "%"}, {"measurement": "YFP fluorescence quenching using CNL001 (percent quench)", "setting": "1 uM CNL001, first column so headed", "value": 7.331, "unit": "%"}, {"measurement": "YFP fluorescence quenching using CNL001 (percent quench)", "setting": "1 uM CNL001, second column so headed", "value": 9.103, "unit": "%"}, {"measurement": "YFP fluorescence quenching (percent quench)", "setting": "1 uM CNL002", "value": "−3.33", "unit": "%"}, {"measurement": "YFP fluorescence quenching using ABT-126 (percent quench)", "setting": "1 uM abt (ABT-126)", "value": "−2.6", "unit": "%"}, {"measurement": "YFP fluorescence quenching using TC-5619/Bradanicline (percent quench)", "setting": "1 uM brd (TC-5619/Bradanicline)", "value": 45.47, "unit": "%"}, {"measurement": "YFP fluorescence quenching (percent quench)", "setting": "10 uM ach (acetylcholine)", "value": 9.47, "unit": "%"}, {"measurement": "YFP fluorescence quenching (percent quench)", "setting": "30 uM CNL002", "value": 6.96, "unit": "%"}, {"measurement": "YFP fluorescence quenching using AZD-0328 (percent quench)", "setting": "30 uM azd0328", "value": 68.65, "unit": "%"}, {"measurement": "YFP fluorescence quenching (percent quench)", "setting": "100 uM ach (acetylcholine)", "value": 6.12, "unit": "%"}, {"measurement": "YFP fluorescence quenching (percent quench)", "setting": "1 mM ach (acetylcholine)", "value": "−1.56", "unit": "%"}, {"measurement": "YFP fluorescence quenching (percent quench)", "setting": "3 mM ach (acetylcholine)", "value": 17.57, "unit": "%"}, {"measurement": "YFP fluorescence quenching using Facinicline, 30 nM fac", "setting": "ligand Facinicline 30 nM", "value": 41.32}, {"measurement": "YFP fluorescence quenching using Facinicline, 100 nM fac", "setting": "ligand Facinicline 100 nM", "value": 59.51}, {"measurement": "YFP fluorescence quenching using Facinicline, 300 nM fac", "setting": "ligand Facinicline 300 nM", "value": 74.86}, {"measurement": "YFP fluorescence quenching using Facinicline, 10 uM fac", "setting": "ligand Facinicline 10 uM", "value": 78.53}, {"measurement": "YFP fluorescence quenching using Facinicline, 30 uM fac", "setting": "ligand Facinicline 30 uM", "value": 84.45}, {"measurement": "YFP fluorescence quenching using TC-6987, 1 uM tc6987", "setting": "ligand TC-6987 1 uM", "value": 38.83}, {"measurement": "YFP fluorescence quenching using TC-6987, 10 uM tc6987", "setting": "ligand TC-6987 10 uM", "value": 31.59}, {"measurement": "YFP fluorescence quenching using TC-6987, 500 uM tc6987", "setting": "ligand TC-6987 500 uM", "value": 29.83}]}
